Test results reported in publication PMC6073527, “Functional Characterization and Structure-Guided Mutational Analysis of the Transsulfuration Enzyme Cystathionine γ-Lyase from Toxoplasma gondii” (International Journal of Molecular Sciences, 2018).

Tests used:
[1] = biological target: cystathionine γ-lyase from Toxoplasma gondii (Toxoplasma gondii); experiment: SEC; analytical gel filtration on Superdex 200 HR 10/300 GL; 50 mM sodium phosphate buffer pH 8.5, 150 mM NaCl, 0.1 mM DTT; mass from a calibration curve
[2] = system: N[C@@H](CSCSC[C@H](N)C(=O)O)C(=O)O; experiment: steady-state kinetics of the purified enzyme, LDH-coupled assay (Km); assay type: biochemical, Toxoplasma gondii; conditions: PLP; pH 9.0; 37.0 °C
[3] = system: N[C@@H](CCSC[C@H](N)C(=O)O)C(=O)O; experiment: purified protein; assay type: biochemical, Toxoplasma gondii; conditions: PLP active site; external aldimine with PLP (modelled); pH 9.0; 37.0 °C
[4] = biological target: T1, Cystathionine γ-lyase (TgCGL) (Toxoplasma gondii, UniProt A0A125YN40); experiment: UV-visible absorption titration at […] and […] nm; also substrate inhibition (Ki […]); assay type: binding
T1 construct: gene TGME49_312930; full-length, N-terminal His6 tag
T1 sequence (A0A125YN40 1-417): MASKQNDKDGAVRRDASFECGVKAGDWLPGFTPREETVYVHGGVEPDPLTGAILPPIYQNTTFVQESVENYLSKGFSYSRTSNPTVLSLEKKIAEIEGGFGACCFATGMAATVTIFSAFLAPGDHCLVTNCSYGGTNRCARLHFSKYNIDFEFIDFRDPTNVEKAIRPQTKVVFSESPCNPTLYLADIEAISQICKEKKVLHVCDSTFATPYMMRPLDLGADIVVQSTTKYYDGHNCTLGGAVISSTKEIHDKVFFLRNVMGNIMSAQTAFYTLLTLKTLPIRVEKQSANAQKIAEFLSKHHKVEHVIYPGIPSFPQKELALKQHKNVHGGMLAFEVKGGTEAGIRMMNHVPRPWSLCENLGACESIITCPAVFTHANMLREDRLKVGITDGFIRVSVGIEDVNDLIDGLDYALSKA

[5] = biological target: T2, Cystathionine γ-lyase (TgCGL) (Toxoplasma gondii, UniProt A0A125YN40, S77E); experiment: UV-visible absorption titration at […] and […] nm (no hydrolysis detected); assay type: binding
T2 construct: gene TGME49_312930; full-length, N-terminal His6 tag
T2 sequence (A0A125YN40 1-417 S77E): T1 sequence (A0A125YN40 1-417)

[6] = biological target: T3, Cystathionine γ-lyase (TgCGL) (Toxoplasma gondii, UniProt A0A125YN40, N360S); experiment: UV-visible absorption titration at […] and […] nm; also substrate inhibition (Ki […]); assay type: binding
T3 construct: gene TGME49_312930; full-length, N-terminal His6 tag

[7] = biological target: T4, Cystathionine γ-lyase (TgCGL) (Toxoplasma gondii, UniProt A0A125YN40); experiment: intrinsic fluorescence titration of apo-TgCGL (excitation […] nm, emission […] nm); assay type: binding
T4 construct: gene TGME49_312930; full-length, N-terminal His6 tag (apo-protein)

[8] = system: N[C@@H](CCSC[C@H](N)C(=O)O)C(=O)O; experiment: steady-state kinetics of the purified enzyme, DTNB assay (Km); assay type: biochemical, Toxoplasma gondii; conditions: PLP; pH 9.0; 37.0 °C
[9] = substrate: N[C@@H](CSCSC[C@H](N)C(=O)O)C(=O)O; experiment: steady-state kinetics of the purified enzyme, LDH-coupled assay (Km); assay type: biochemical, Toxoplasma gondii; conditions: PLP; pH 9.0; 37.0 °C; remark: listed apart in the source
[10] = substrate: NCCSC[C@H](N)C(=O)O; experiment: steady-state kinetics of the purified enzyme, α,β-elimination (Km); assay type: biochemical, Toxoplasma gondii; conditions: PLP
purified protein = substrate: N[C@@H](CCSC[C@H](N)C(=O)O)C(=O)O; experiment: purified protein; conditions: PLP active site; external aldimine with PLP (modelled); pH 9.0; 37.0 °C

“cystathionine γ-lyase from Toxoplasma gondii (enzyme)” showed a stoichiometry N [1] of 4.

Molecule “Cystathionine γ-lyase (TgCGL) (Toxoplasma gondii ME49; N360S)” has a Km [2] of 860 ± 30 µM, a kcat [2] of 0.19 ± 0.01 s⁻¹ and a kcat/Km [2] of 220 ± 20 M⁻¹ s⁻¹. It also gave a Km [3] of 1100 ± 100 µM, a kcat [3] of 0.08 ± 0.01 s⁻¹ and a kcat/Km [3] of 73 ± 16 M⁻¹ s⁻¹.

N[C@@H](CS)C(=O)O [L-cysteine] was tested, and the Kd [4] was 306 ± 41 (335 nm); 273 ± 52 (421 nm) µM, the Kd [5] was 677 ± 180 (335 nm); 874 ± 87 (421 nm) µM and the Kd [6] was 335 ± 15 (335 nm); 331 ± 20 (421 nm) µM.

Cc1ncc(COP(=O)(O)O)c(C=O)c1O [PLP] was tested, and the Kd [7] was 170 ± 40 nM.

With “Cystathionine γ-lyase (TgCGL) (Toxoplasma gondii ME49; S77A)” the Km [8] was 2400 ± 300 µM, the kcat [8] was 0.7 ± 0.1 s⁻¹ and the kcat/Km [8] was 290 ± 80 M⁻¹ s⁻¹.

B1: Cystathionine γ-lyase (TgCGL) (Toxoplasma gondii ME49) (protein)
chain: T1 sequence (A0A125YN40 1-417)
notes: full-length, N-terminal His6 tag
B1 was tested, and the Km [9] was 510 ± 10 µM, the kcat [9] was 0.24 ± 0.01 s⁻¹ and the kcat/Km [9] was 470 ± 30 M⁻¹ s⁻¹. For the same molecule, the Km [10] was 1300 ± 100 µM and the Km (purified protein) was 900 ± 100 µM.
